Laboratory results reported in the supplement of paper PMC7125110.
± gives the standard error. Fewer inactive variants are shown than the library holds.

B1: glmS ribozyme (parent)
chain: AUAAAAGCGCCAGAACUACAGAAAUGUAGUUGACGAGGAGGAGGUUUAUCGAAUUUUCGGCGGAUGCCUCCAAA

What was measured:
Conditions in all cases: with glucosamine-6-phosphate
glucosamine-6-phosphate [1] = variants of: B1; assay: self-cleavage kobs at 640 uM GlcN6P; higher = faster cleavage; RNA array
Method in brief: (§1)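 Barcoded ribozyme variants were transcribed in situ on sequenced MiSeq chips by E. coli RNA polymerase. At 37 °C, a hybridised Cy3 probe tracked them while glucosamine-6-phosphate (40 μM to 10 mM) in HEPES/KCl/Mg(OAc)2 buffer flowed in and tiles were imaged over ~14 h. Per-tile medians of signals normalised to baseline and to non-cleaving reference variants were fit to one- or two-exponential decays, giving kobs. kcat and KM came from weighted Michaelis–Menten fits across concentrations.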

glucosamine-6-phosphate [2] = variants of: B1; assay: self-cleavage kobs at 2500 uM GlcN6P; higher = faster cleavage; RNA array
Method in brief: as §1

glucosamine-6-phosphate [3] = variants of: B1; assay: self-cleavage kobs at 10000 uM GlcN6P; higher = faster cleavage; RNA array
Method in brief: as §1

Variant | self-cleavage kobs at 640 uM GlcN6P (glucosamine-6-phosphate [1]) | self-cleavage kobs at 2500 uM GlcN6P (glucosamine-6-phosphate [2]) | self-cleavage kobs at 10000 uM GlcN6P (glucosamine-6-phosphate [3])
U30G G32A G38C U57C U65C | < 1e-05 s⁻¹ | < 1e-05 s⁻¹ | 
C16G G29U G35A | < 1e-05 s⁻¹ |  | 
G41U U55G A64G | 8.52e-05 ± 3.1e-05 s⁻¹ | 0.000147 ± 4.4e-05 s⁻¹ | 
U31G G32A U54C | 0.000129 ± 3.8e-05 s⁻¹ | 0.000702 ± 0.00023 s⁻¹ | 
C8U U31G G43A | < 1e-05 s⁻¹ |  | 
G38A A42C A64G | < 1e-05 s⁻¹ | < 1e-05 s⁻¹ | 
G7U G38U G40U | < 1e-05 s⁻¹ |  | 
C11G U49C C68G U69C | < 1e-05 s⁻¹ |  | 
G13A G35C G51U | < 1e-05 s⁻¹ |  | 
A12C C34G G40U | < 1e-05 s⁻¹ | < 1e-05 s⁻¹ | 
C34A G43U U55G U57G C61A | < 1e-05 s⁻¹ |  | 
C8A C10A U30A C61G | < 1e-05 s⁻¹ | < 1e-05 s⁻¹ | 
A6C G9A G37A G51C | < 1e-05 s⁻¹ |  | 
A36U U65C C70G | 0.000173 ± 7.9e-05 s⁻¹ |  | 
C10G G38U U49G C58G A64C U65A C67U C68U | 0.000308 ± 8.3e-05 s⁻¹ |  | 
A33C U54G A64C C70G | < 1e-05 s⁻¹ | < 1e-05 s⁻¹ | 
C11A G32U A39C U54A C67G C68G | 0.00137 ± 0.00067 s⁻¹ |  | 

Variant | self-cleavage kobs at 640 uM GlcN6P (glucosamine-6-phosphate [1]) | self-cleavage kobs at 2500 uM GlcN6P (glucosamine-6-phosphate [2]) | self-cleavage kobs at 10000 uM GlcN6P (glucosamine-6-phosphate [3])
A52U C68G | 0.000375 ± 0.00018 s⁻¹ | 4.62e-05 ± 8.4e-06 s⁻¹ | 1.85e-05 ± 7.8e-06 s⁻¹
G38U C50G G62U | 0.000714 ± 0.00023 s⁻¹ | 6.98e-05 ± 2e-05 s⁻¹ | 
A14U A39C A64G | 0.000213 ± 5e-05 s⁻¹ | 0.000771 ± 0.0002 s⁻¹ | 
C50G U54C G60C C61G | 0.000234 ± 5.5e-05 s⁻¹ | 8.41e-05 ± 2.8e-05 s⁻¹ | 
C11A C50U G59C | < 1e-05 s⁻¹ | < 1e-05 s⁻¹ | 
C11A G40C C50U | < 1e-05 s⁻¹ | < 1e-05 s⁻¹ | 
C11A A14U A15G G35C U45A G60U | < 1e-05 s⁻¹ |  | 
G32A A39C G59A C67A | < 1e-05 s⁻¹ | < 1e-05 s⁻¹ | 
U57G A64U U69G | 0.000149 ± 5.9e-05 s⁻¹ | 6.09e-05 ± 1.5e-05 s⁻¹ | 
C11U G32C U47C C50A | < 1e-05 s⁻¹ |  | 
C34A G43U U55C | < 1e-05 s⁻¹ | < 1e-05 s⁻¹ | 
G7U G38C U45C C70G | < 1e-05 s⁻¹ |  | 
G29U G38U U57A G59C | < 1e-05 s⁻¹ |  | 
G44U A53G U65C | < 1e-05 s⁻¹ |  | 
A39U A48U A53C | < 1e-05 s⁻¹ |  | 
A14U A15U G60U C71U | < 1e-05 s⁻¹ |  | < 1e-05 s⁻¹
A53G G66C C71G | 8.43e-05 ± 2.2e-05 s⁻¹ |  | 
